In article PMC7092541, “Characterization of a novel family VIII esterase EstM2 from soil metagenome capable of hydrolyzing estrogenic phthalates” (Microbial Cell Factories, 2020):

Legend:
Assay in all cases: purified protein
[1] = system: CCOC(=O)c1ccccc1C(=O)O; settings: 50 mM Tris-HCl pH 8.0, 37 °C, substrate 0.1-10 mM (unit defined at 25 °C)
[2] = system: COC(=O)c1ccccc1C(=O)OC; settings: 50 mM Tris-HCl pH 8.0, 37 °C, substrate 0.1-10 mM (unit defined at 25 °C)
[3] = system: O=C(O)c1ccccc1C(=O)Oc1ccccc1; settings: 50 mM Tris-HCl pH 8.0, 37 °C, substrate 0.1-10 mM (unit defined at 25 °C)
[4] = system: CC(=O)Oc1ccc([N+](=O)[O-])cc1; settings: 50 mM Tris-HCl pH 8.0, 1% acetonitrile
[5] = system: CCCCOC(=O)c1ccccc1C(=O)OCc1ccccc1; settings: 50 mM Tris-HCl pH 8.0, 37 °C, substrate 0.1-10 mM (unit defined at 25 °C)
[6] = system: COC(=O)c1ccccc1C(=O)O; settings: 50 mM Tris-HCl pH 8.0, 37 °C, substrate 0.1-10 mM (unit defined at 25 °C)
[7] = system: CCCCCC(=O)Oc1ccc([N+](=O)[O-])cc1; settings: 50 mM Tris-HCl pH 8.0, 1% acetonitrile
[8] = system: CCCCOC(=O)c1ccccc1C(=O)OCCCC; settings: 50 mM Tris-HCl pH 8.0, 37 °C, substrate 0.1-10 mM (unit defined at 25 °C)
[9] = system: O=C(O)c1ccccc1C(=O)OCc1ccccc1; settings: 50 mM Tris-HCl pH 8.0, 37 °C, substrate 0.1-10 mM (unit defined at 25 °C)
[10] = system: CCCCOC(=O)c1ccccc1C(=O)O; settings: 50 mM Tris-HCl pH 8.0, 37 °C, substrate 0.1-10 mM (unit defined at 25 °C)
[11] = system: CCCC(=O)Oc1ccc([N+](=O)[O-])cc1; settings: 50 mM Tris-HCl pH 8.0, 1% acetonitrile
[12] = system: O=C(Oc1ccccc1)c1ccccc1C(=O)Oc1ccccc1; settings: 50 mM Tris-HCl pH 8.0, 37 °C, substrate 0.1-10 mM (unit defined at 25 °C)

## EstM2 (uncultured bacterium)
[1]
  Km: 1730 ± 130 µM
  Vmax: 54.2 µmol/min/mg
  kcat/Km: 22500 ± 1600 M⁻¹ s⁻¹
[2]
  Km: 1020 ± 80 µM
  Vmax: 42.1 µmol/min/mg
  kcat/Km: 29600 ± 2300 M⁻¹ s⁻¹
[3]
  Km: 1060 ± 80 µM
  Vmax: 37.6 µmol/min/mg
  kcat/Km: 25400 ± 1900 M⁻¹ s⁻¹
[4]
  Km: 410 ± 10 µM
  Vmax: 748 µmol/min/mg
  kcat/Km: 1.29e+06 ± 32500 M⁻¹ s⁻¹
[5]
  Km: 640 ± 40 µM
  Vmax: 57.6 µmol/min/mg
  kcat/Km: 64500 ± 3800 M⁻¹ s⁻¹
[6]
  Km: 1950 ± 150 µM
  Vmax: 41.3 µmol/min/mg
  kcat/Km: 15200 ± 1200 M⁻¹ s⁻¹
[7]
  Km: 280 ± 20 µM
  Vmax: 71.4 µmol/min/mg
  kcat/Km: 183000 ± 10700 M⁻¹ s⁻¹
[8]
  Km: 620 ± 40 µM
  Vmax: 72.9 µmol/min/mg
  kcat/Km: 84200 ± 5100 M⁻¹ s⁻¹
[9]
  Km: 1120 ± 80 µM
  Vmax: 43.8 µmol/min/mg
  kcat/Km: 28000 ± 2000 M⁻¹ s⁻¹
[10]
  Km: 1260 ± 80 µM
  Vmax: 56.7 µmol/min/mg
  kcat/Km: 32200 ± 2200 M⁻¹ s⁻¹
[11]
  Km: 440 ± 10 µM
  Vmax: 905 µmol/min/mg
  kcat/Km: 1.46e+06 ± 34200 M⁻¹ s⁻¹
[12]
  Vmax: 45.1 µmol/min/mg
  kcat/Km: 54800 ± 3600 M⁻¹ s⁻¹
